1 substance from US20060008891A1, “Cathepsin G-related peptides as modulators of formylpeptide receptors (FPR)” (The Government of USA as repersented by the Secretary, …, priority 2004, published 2006) can be followed below.

“And” between values parts separate entries of the source, which are not always exact repeats. Equal entries are not always repeated.

Test [1] concerns the target T1, FPR (Homo sapiens, UniProt P21462).
T1 construct: expressed in transfected cells; host or cells: Rat basophilic leukemia (RBL) cells, stably transfected (ETFR cells); gift of H. Ali and R. Snyderman, Duke University
T1 sequence (P21462 1-350): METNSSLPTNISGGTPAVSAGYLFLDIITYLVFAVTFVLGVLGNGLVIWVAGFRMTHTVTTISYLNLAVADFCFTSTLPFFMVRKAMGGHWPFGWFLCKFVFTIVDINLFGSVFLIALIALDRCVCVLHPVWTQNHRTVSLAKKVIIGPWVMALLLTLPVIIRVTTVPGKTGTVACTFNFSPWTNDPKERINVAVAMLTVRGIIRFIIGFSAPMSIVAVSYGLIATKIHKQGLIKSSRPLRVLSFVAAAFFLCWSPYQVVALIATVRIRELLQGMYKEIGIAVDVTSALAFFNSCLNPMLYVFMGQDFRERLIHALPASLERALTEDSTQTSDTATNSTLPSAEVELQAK
Briefly: Chemotaxis assay, RBL cells transfected with FPR (ETFR cells). Type of test: cell-based. As for the experimental part:
Human PBMC were isolated from leukopacks obtained through the courtesy of Transfusion Medicine Department, National Institutes of Health Clinical Center (Bethesda, Md.) by Ficoll-Hypaque density gradient centrifugation. Monocytes were purified from human PBMC by Percoll gradient to yield>90% pure preparations. […] H. Ali and R. Snyderman, Duke University (Durham, N.C.) and maintained in the presence of 0.8 mg/ml geneticin (G418, Life Technologies, Rockville, Md.) in DMEM supplemented with 10% FCS. B. Chemotaxis assay Migration of phagocytes and ETFR cells was assessed using a 48-well microchemotaxis chamber (Neuroprobe, Cabin John, Md.) as previously described (Hu et al. (2001) J Leukoc Biol 70 15512). Briefly, different concentrations of stimulants were placed in the wells of the lower compartment of the chamber, and 50 μl cells (1.5×10^6 cells/ml for monocyte and neutrophil, 1×10^6 ETFR cells/ml) were added to the wells of the upper compartment. The lower and upper compartments were separated by either a 5-μm (for monocyte) or a 10-μm pore size, collagen-coated (for ETFR cells) polycarbonate filter (Osmonics, Livermore, Calif.). After incubation at 37° C. in humidified air with 5% CO2 (60 min for neutrophils, 90 min for monocytes, 4.5 h for ETFR cells), the filter was removed and stained, and the cells migrating across the filter were counted with light microscopy. The results are presented as the mean number of cells (±SD) in three high power fields (HPFs). For analysis of cross-desensitization, cells were pretreated with indicated reagents for 1 h at 37° C. After thorough washing with cold medium (RPMI 1640, 1% BSA), the cells were resuspended and assayed. To measure the effect of various signaling inhibitors, unless otherwise indicated, the cells were pre-incubated at 37° C. for 60 min with the inhibitors, and were then added to the upper wells of the chemotaxis chamber.

The target of test [2] is T1, FPR. Kind of test: FPR internalization (confocal microscopy), ETFR cells. It counts as cell-based. As to conditions: 30 min 37° C. Here is the method: For detection of FPR internalization, ETFR cells were seeded on coverslips and cultured overnight in DMEM containing 10% FCS at 37° C. After pretreatment with medium or stimulants for 30 minutes at 37° C., the cells were fixed in 0.25% paraformaldehyde for 15 min at 4° C. The cells were then permeabilized with 0.2% Tween 20 for 30 min at 4° C., followed by incubation with a monoclonal anti-human FPR antibody or isotype matched IgG for 30 min at 4° C. After three washes with 0.1% Tween 20 in DPBS, a FITC-labeled rat anti-mouse antibody (PharMingen) was applied to the cells for 30 min at 4° C. The coverslips were covered with DAPI, then mounted with an anti-fade, water-based mounting medium and analyzed under a laser scanning Zeiss LSM410 fluorescence confocal microscope.

Another test concerns p38 MAPK. Briefly: Phosphorylation of p38 MAPK in ETFR cells (Western blot). It counts as cell-based, rat. As for the experimental part: ETFR cells were plated in Petri dishes and cultured in DMEM at 37° C. in humidified 5% CO2 atmosphere for 48 h. After further culture in serum-free DMEM overnight, the cells were treated with stimulants for indicated time periods. The reaction was stopped by adding 1 ml ice-cold PBS, and the cells were lysed in 1×SDS lysis buffer (62.5 mM Tris-HCl, 2% w/v SDS, 10% glycerol, 50 mM DTT, pH 6.8) and harvested into tubes for sonication. Proteins (50 μg for each sample) were resolved by SDS-PAGE and transferred onto nitrocellulose membranes (Bio-Rad, Hercules, Calif.). The membranes were blocked for 2 h at room temperature in 3% non-fat milk prepared in Tris-buffered saline-T (10 mM Tris-HCl, pH 7.5, 150 mM NaCl, 0.1% Tween 20) and probed with anti-p-ERK1/2, p-p38 MAPK, or p-Akt (1:1000) at room temperature for 1-2 h or at 4° C. overnight. The membranes were then washed and incubated with horseradish peroxidase-conjugated secondary antibodies diluted in Tris-buffered saline-T for 1 h at room temperature. The immune complexes on the membranes were visualized using ECL reagents. Total ERK1/2, p38 MAPK, and Akt were visualized by stripping the same membrane and probing with antibodies against total ERK1/2, p38 MAPK, and Akt.

“CaG: Cathepsin G, serine protease purified from neutrophil granules, purchased from Athens Research & Technology”: in the test with FPR [1] (ETFR cells), the “chemotactic response of ETFR cells” value was “marked and dose-dependent chemotactic response”; the “concentration range potently chemotactic” value is 4 to 400 nM; the “optimal concentration to induce ETFR cell migration” value was 5 µg/mL. For the same substance, the “concentration required to elicit optimal cell migration” value with FPR [1] (FPR-expressing cells, cell type not specified) is 5-10 μg/ml and 200-400 nM. Also, the FPR internalization result in the test with FPR [2] was “significantly and dose-dependently induced FPR internalization”. In addition, in the test with p38 MAPK, the “time to activation of p38 MAPK” value lay within 1 to 5 min.
